According to the supplement of paper PMC9112550, “Optimization of the antimicrobial peptide Bac7 by deep mutational scanning” (BMC Biology, 2022):

Test system: Escherichia coli TOP10
Assay: shrunken log2 fold change of peptide-encoding DNA abundance (4.5 h post-induction vs induction); higher = less antimicrobial activity (less host growth inhibition)
Conditions: time post-induction: 4.5 h; library: site-saturation at positions 5, 18, 19, 20
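Note: peptides expressed intracellularly from a pBAD plasmid library in pooled LB shake-flask culture, induced with 0.3% L-arabinose, DNA abundance read by NGS, three biological replicates, DESeq2 with apeglm shrinkage.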

First: RRIRPRPPRLPRPRPRPNDTPRP
Second: RRIRPRPPRLPRPRPRPNEKPRP
The “shrunken log2 fold change” value of the first is lower: -0.338 for the first, 0.023 for the second.

RRIRPRPPRLPRPRPRPNERPRP and RRIRPRPPRLPRPRPRPNFDPRP are within 0.2 log units of each other in “shrunken log2 fold change” value: 0.181 for the first, -0.0128 for the second.

Going from RRIRPRPPRLPRPRPRPNFHPRP to RRIRPRPPRLPRPRPRPNGMPRP, the “shrunken log2 fold change” value rises from -0.169 to 0.171.

RRIRPRPPRLPRPRPRPNINPRP and RRIRPRPPRLPRPRPRPNIRPRP are within 0.2 log units of each other in “shrunken log2 fold change” value: -0.795 for the first, -0.743 for the second.

RRIRPRPPRLPRPRPRPNIWPRP and RRIRPRPPRLPRPRPRPNKIPRP are within 0.2 log units of each other in “shrunken log2 fold change” value: -0.0307 for the first, -0.203 for the second.

RRIRPRPPRLPRPRPRPNLAPRP and RRIRPRPPRLPRPRPRPNLCPRP are within 0.2 log units of each other in “shrunken log2 fold change” value: 0.294 for the first, 0.138 for the second.

RRIRPRPPRLPRPRPRPNLKPRP and RRIRPRPPRLPRPRPRPNMGPRP are within 0.2 log units of each other in “shrunken log2 fold change” value: -0.0156 for the first, -0.202 for the second.

RRIRPRPPRLPRPRPRPNMHPRP and RRIRPRPPRLPRPRPRPNMSPRP are within 0.2 log units of each other in “shrunken log2 fold change” value: -0.329 for the first, -0.485 for the second.

RRIRPRPPRLPRPRPRPNNYPRP and RRIRPRPPRLPRPRPRPNPSPRP are within 0.2 log units of each other in “shrunken log2 fold change” value: -0.0307 for the first, -0.138 for the second.

RRIRPRPPRLPRPRPRPNRKPRP and RRIRPRPPRLPRPRPRPNSQPRP are within 0.2 log units of each other in “shrunken log2 fold change” value: -0.371 for the first, -0.314 for the second.

First: RRIRPRPPRLPRPRPRPNVGPRP
Second: RRIRPRPPRLPRPRPRPNVLPRP
The “shrunken log2 fold change” value of the first is higher: 0.0392 for the first, -0.312 for the second.

RRIRPRPPRLPRPRPRPNWVPRP and RRIRPRPPRLPRPRPRPPCMPRP are within 0.2 log units of each other in “shrunken log2 fold change” value: -0.2 for the first, -0.165 for the second.

Compared with RRIRPRPPRLPRPRPRPPEQPRP, RRIRPRPPRLPRPRPRPPFGPRP is higher in “shrunken log2 fold change” value: 0.206 for the first, 0.432 for the second.

Compared with RRIRPRPPRLPRPRPRPPFIPRP, RRIRPRPPRLPRPRPRPPFTPRP is higher in “shrunken log2 fold change” value: -0.0606 for the first, 0.185 for the second.

Compared with RRIRPRPPRLPRPRPRPPGDPRP, RRIRPRPPRLPRPRPRPPHQPRP is lower in “shrunken log2 fold change” value: 0.567 for the first, 0.146 for the second.

Going from RRIRPRPPRLPRPRPRPPIKPRP to RRIRPRPPRLPRPRPRPPKVPRP, the “shrunken log2 fold change” value falls from 0.355 to 0.122.

Compared with RRIRPRPPRLPRPRPRPPKYPRP, RRIRPRPPRLPRPRPRPPLNPRP is higher in “shrunken log2 fold change” value: -0.148 for the first, 0.275 for the second.

RRIRPRPPRLPRPRPRPPMPPRP and RRIRPRPPRLPRPRPRPPMQPRP are within 0.2 log units of each other in “shrunken log2 fold change” value: 0.442 for the first, 0.421 for the second.

Compared with RRIRPRPPRLPRPRPRPPMSPRP, RRIRPRPPRLPRPRPRPPQFPRP is higher in “shrunken log2 fold change” value: -0.0803 for the first, 0.297 for the second.

Going from RRIRPRPPRLPRPRPRPPRMPRP to RRIRPRPPRLPRPRPRPPSNPRP, the “shrunken log2 fold change” value falls from 0.412 to -0.0339.

RRIRPRPPRLPRPRPRPPTQPRP and RRIRPRPPRLPRPRPRPPVEPRP are within 0.2 log units of each other in “shrunken log2 fold change” value: 0.12 for the first, 0.0793 for the second.

First: RRIRPRPPRLPRPRPRPPVYPRP
Second: RRIRPRPPRLPRPRPRPPWLPRP
The “shrunken log2 fold change” value of the first is lower: 0.162 for the first, 0.57 for the second.

First: RRIRPRPPRLPRPRPRPPWNPRP
Second: RRIRPRPPRLPRPRPRPPWVPRP
The “shrunken log2 fold change” value of the first is higher: 0.77 for the first, 0.356 for the second.

Going from RRIRPRPPRLPRPRPRPQANPRP to RRIRPRPPRLPRPRPRPQDNPRP, the “shrunken log2 fold change” value falls from -0.137 to -0.548.

RRIRPRPPRLPRPRPRPQEWPRP and RRIRPRPPRLPRPRPRPQFEPRP are within 0.2 log units of each other in “shrunken log2 fold change” value: 0.0248 for the first, 0.0184 for the second.

First: RRIRPRPPRLPRPRPRPQFVPRP
Second: RRIRPRPPRLPRPRPRPQGGPRP
The “shrunken log2 fold change” value of the first is lower: -0.528 for the first, 0.332 for the second.

Compared with RRIRPRPPRLPRPRPRPQGRPRP, RRIRPRPPRLPRPRPRPQGWPRP is higher in “shrunken log2 fold change” value: -0.0433 for the first, 0.542 for the second.

Going from RRIRPRPPRLPRPRPRPQHTPRP to RRIRPRPPRLPRPRPRPQLTPRP, the “shrunken log2 fold change” value falls from 0.769 to -0.221.

First: RRIRPRPPRLPRPRPRPQMVPRP
Second: RRIRPRPPRLPRPRPRPQQQPRP
The “shrunken log2 fold change” value of the first is lower: -0.491 for the first, -0.17 for the second.

Compared with RRIRPRPPRLPRPRPRPQRLPRP, RRIRPRPPRLPRPRPRPQTRPRP is higher in “shrunken log2 fold change” value: 0.0191 for the first, 0.227 for the second.

Compared with RRIRPRPPRLPRPRPRPQVQPRP, RRIRPRPPRLPRPRPRPQVYPRP is higher in “shrunken log2 fold change” value: -0.148 for the first, 0.962 for the second.

Going from RRIRPRPPRLPRPRPRPQWEPRP to RRIRPRPPRLPRPRPRPRAIPRP, the “shrunken log2 fold change” value rises from 0.155 to 0.503.

Going from RRIRPRPPRLPRPRPRPRASPRP to RRIRPRPPRLPRPRPRPRCPPRP, the “shrunken log2 fold change” value falls from 0.548 to 0.208.

Compared with RRIRPRPPRLPRPRPRPRDFPRP, RRIRPRPPRLPRPRPRPRETPRP is higher in “shrunken log2 fold change” value: 0.317 for the first, 0.574 for the second.

Compared with RRIRPRPPRLPRPRPRPRFLPRP, RRIRPRPPRLPRPRPRPRGGPRP is higher in “shrunken log2 fold change” value: 0.146 for the first, 0.605 for the second.

Compared with RRIRPRPPRLPRPRPRPRICPRP, RRIRPRPPRLPRPRPRPRKLPRP is higher in “shrunken log2 fold change” value: 0.0562 for the first, 0.342 for the second.

RRIRPRPPRLPRPRPRPRLDPRP and RRIRPRPPRLPRPRPRPRMPPRP are within 0.2 log units of each other in “shrunken log2 fold change” value: 0.0787 for the first, 0.249 for the second.

RRIRPRPPRLPRPRPRPRNYPRP was tested, and the “shrunken log2 fold change” value was 0.000451.
